B1: wild-type murine RAD51AP1 fused to mCherry [mouse] / murine RAD51 with a C-terminal EGFP tag [mouse] (parent)
chain 1: MVRPTRNRKPINYSQFEDSGNDSDDDFISSSTPVNKSKTVPKVLKQDKPKPNLKNLQKEEVLPTEPPKKRVALDDKVFQRGLEVALALSVKELPTLTNQVKKSKEKSTDKQGKEKTENTGKPPRVSNCSVASDDVEDLDKITEEGDASSVEGERKSPSQAKAPRRRAPSEGSDGSSANDTESESATGEGSESDPDFDESKESDEDFGVRRSKESKKKTVQKKPAGEKKERKSKPKCEASVTSVDPAPAAIKSGSPSLPQAVGLPSEATRKPAIMCSPSAESKRPKWVPPAASGSRNSSSNALAGTPAKSPSQSLRLGLSRLAPVKRLHPSATSSQVR
chain 2: MAMQMQLEASADTSVEEESFGPQPISRLEQCGINANDVKKLEEAGYHTVEAVAYAPKKELINIKGISEAKADKILTEAAKLVPMGFTTATEFHQRRSEIIQITTGSKELDKLLQGGIETGSITEMFGEFRTGKTQICHTLAVTCQLPIDRGGGEGKAMYIDTEGTFRPERLLAVAERYGLSGSDVLDNVAYARGFNTDHQTQLLYQASAMMVESRYALLIVDSATALYRTDYSGRGELSARQMHLARFLRMLLRLADEFGVAVVITNQVVAQVDGAAMFAADPKKPIGGNIIAHASTTRLYLRKGRGETRICKIYDSPCLPEAEAMFAINADGVGDAKD

Variants of: B1
Assay: co-immunoprecipitation (IP RAD51AP1, blot RAD51), band quantification
Conditions: asynchronous 293FT cells, transient co-expression, lane 5, parent: 1, read off a plot
Work on chain 1 MVRPTRNRKPINYSQFEDSGNDSDDDFISSSTPVNKSKTVPKVLKQDKPKPNLKNLQKEEVLPTEPPKKRVALDDKVFQRGLEVALALSVKELPTLTNQVKKSKEKSTDKQGKEKTENTGKPPRVSNCSVASDDVEDLDKITEEGDASSVEGERKSPSQAKAPRRRAPSEGSDGSSANDTESESATGEGSESDPDFDESKESDEDFGVRRSKESKKKTVQKKPAGEKKERKSKPKCEASVTSVDPAPAAIKSGSPSLPQAVGLPSEATRKPAIMCSPSAESKRPKWVPPAASGSRNSSSNALAGDPAKSPSQSLRLGLSRLAPVKRLHPSATSSQVR [chain 1 T305D] yielded a ratio to parent of 0.07.

Variants of: B1
Assay: co-immunoprecipitation (IP GFP-RAD51, blot RAD51AP1), band quantification
Conditions: asynchronous 293FT cells, transient co-expression, lane 15, parent: 1, read off a plot
With chain 1 MVRPTRNRKPINYSQFEDSGNDSDDDFISSSTPVNKSKTVPKVLKQDKPKPNLKNLQKEEVLPTEPPKKRVALDDKVFQRGLEVALALSVKELPTLTNQVKKSKEKSTDKQGKEKTENTGKPPRVSNCSVASDDVEDLDKITEEGDASSVEGERKSPSQAKAPRRRAPSEGSDGSSANDTESESATGEGSESDPDFDESKESDEDFGVRRSKESKKKTVQKKPAGEKKERKSKPKCEASVTSVDPAPAAIKSGSPSLPQAVGLPSEATRKPAIMCSPSAESKRPKWVPPAASGSRNSSSNALAGDPAKSPSQSLRLGLSRLAPVKRLHPSATSSQVR [chain 1 T305D] the ratio to parent was 0.32.

Variants of: B1
Assay: co-immunoprecipitation (IP RAD51AP1, blot RAD51), band quantification
Conditions: asynchronous 293FT cells, transient co-expression, lane 9, parent: 1, read off a plot
chain 1 MVRPTRNRKPINYSQFEDSGNDSDDDFISSSTPVNKSKTVPKVLKQDKPKPNLKNLQKEEVLPTEPPKKRVALDDKVFQRGLEVALALSVKELPTLTNQVKKSKEKSTDKQGKEKTENTGKPPRVSNCSVASDDVEDLDKITEEGDASSVEGERKSPSQAKAPRRRAPSEGSDGSSANDTESESATGEGSESDPDFDESKESDEDFGVRRSKESKKKTVQKKPAGEKKERKSKPKCEASVTSVDPAPAAIKSGSPSLPQAVGLPSEATRKPAIMCSPSAESKRPKWVPPAASGSRNSSSNALAGDPAKDPSQSLRLGLSRLAPVKRLHPSATSSQVR [chain 1 T305D S309D] was tested, and the ratio to parent was 0.02.

Variants of: B1
Assay: co-immunoprecipitation (IP GFP-RAD51, blot RAD51AP1), band quantification
Conditions: asynchronous 293FT cells, transient co-expression, lane 19, parent: 1, read off a plot
In the case of chain 1 MVRPTRNRKPINYSQFEDSGNDSDDDFISSSTPVNKSKTVPKVLKQDKPKPNLKNLQKEEVLPTEPPKKRVALDDKVFQRGLEVALALSVKELPTLTNQVKKSKEKSTDKQGKEKTENTGKPPRVSNCSVASDDVEDLDKITEEGDASSVEGERKSPSQAKAPRRRAPSEGSDGSSANDTESESATGEGSESDPDFDESKESDEDFGVRRSKESKKKTVQKKPAGEKKERKSKPKCEASVTSVDPAPAAIKSGSPSLPQAVGLPSEATRKPAIMCSPSAESKRPKWVPPAASGSRNSSSNALAGDPAKDPSQSLRLGLSRLAPVKRLHPSATSSQVR [chain 1 T305D S309D], the ratio to parent is reported as 0.08.

Variants of: B1
Assay: co-immunoprecipitation (IP RAD51AP1, blot RAD51), band quantification
Conditions: asynchronous 293FT cells, transient co-expression, lane 8, parent: 1, read off a plot
With chain 1 MVRPTRNRKPINYSQFEDSGNDSDDDFISSSTPVNKSKTVPKVLKQDKPKPNLKNLQKEEVLPTEPPKKRVALDDKVFQRGLEVALALSVKELPTLTNQVKKSKEKSTDKQGKEKTENTGKPPRVSNCSVASDDVEDLDKITEEGDASSVEGERKSPSQAKAPRRRAPSEGSDGSSANDTESESATGEGSESDPDFDESKESDEDFGVRRSKESKKKTVQKKPAGEKKERKSKPKCEASVTSVDPAPAAIKSGSPSLPQAVGLPSEATRKPAIMCSPSAESKRPKWVPPAASGSRNSSSNALAGAPAKAPSQSLRLGLSRLAPVKRLHPSATSSQVR [chain 1 T305A S309A] the ratio to parent was 0.95.

Variants of: B1
Assay: co-immunoprecipitation (IP GFP-RAD51, blot RAD51AP1), band quantification
Conditions: asynchronous 293FT cells, transient co-expression, lane 18, parent: 1, read off a plot
In the case of chain 1 MVRPTRNRKPINYSQFEDSGNDSDDDFISSSTPVNKSKTVPKVLKQDKPKPNLKNLQKEEVLPTEPPKKRVALDDKVFQRGLEVALALSVKELPTLTNQVKKSKEKSTDKQGKEKTENTGKPPRVSNCSVASDDVEDLDKITEEGDASSVEGERKSPSQAKAPRRRAPSEGSDGSSANDTESESATGEGSESDPDFDESKESDEDFGVRRSKESKKKTVQKKPAGEKKERKSKPKCEASVTSVDPAPAAIKSGSPSLPQAVGLPSEATRKPAIMCSPSAESKRPKWVPPAASGSRNSSSNALAGAPAKAPSQSLRLGLSRLAPVKRLHPSATSSQVR [chain 1 T305A S309A], the ratio to parent is reported as 0.45.

Variants of: B1
Assay: co-immunoprecipitation (IP RAD51AP1, blot RAD51), band quantification
Conditions: asynchronous 293FT cells, transient co-expression, lane 7, parent: 1, read off a plot
chain 1 MVRPTRNRKPINYSQFEDSGNDSDDDFISSSTPVNKSKTVPKVLKQDKPKPNLKNLQKEEVLPTEPPKKRVALDDKVFQRGLEVALALSVKELPTLTNQVKKSKEKSTDKQGKEKTENTGKPPRVSNCSVASDDVEDLDKITEEGDASSVEGERKSPSQAKAPRRRAPSEGSDGSSANDTESESATGEGSESDPDFDESKESDEDFGVRRSKESKKKTVQKKPAGEKKERKSKPKCEASVTSVDPAPAAIKSGSPSLPQAVGLPSEATRKPAIMCSPSAESKRPKWVPPAASGSRNSSSNALAGTPAKDPSQSLRLGLSRLAPVKRLHPSATSSQVR [chain 1 S309D] showed a ratio to parent of 0.18.

Variants of: B1
Assay: co-immunoprecipitation (IP GFP-RAD51, blot RAD51AP1), band quantification
Conditions: asynchronous 293FT cells, transient co-expression, lane 17, parent: 1, read off a plot
Work on chain 1 MVRPTRNRKPINYSQFEDSGNDSDDDFISSSTPVNKSKTVPKVLKQDKPKPNLKNLQKEEVLPTEPPKKRVALDDKVFQRGLEVALALSVKELPTLTNQVKKSKEKSTDKQGKEKTENTGKPPRVSNCSVASDDVEDLDKITEEGDASSVEGERKSPSQAKAPRRRAPSEGSDGSSANDTESESATGEGSESDPDFDESKESDEDFGVRRSKESKKKTVQKKPAGEKKERKSKPKCEASVTSVDPAPAAIKSGSPSLPQAVGLPSEATRKPAIMCSPSAESKRPKWVPPAASGSRNSSSNALAGTPAKDPSQSLRLGLSRLAPVKRLHPSATSSQVR [chain 1 S309D] yielded a ratio to parent of 0.57.

Variants of: B1
Assay: co-immunoprecipitation (IP RAD51AP1, blot RAD51), band quantification
Conditions: asynchronous 293FT cells, transient co-expression, lane 6, parent: 1, read off a plot
chain 1 MVRPTRNRKPINYSQFEDSGNDSDDDFISSSTPVNKSKTVPKVLKQDKPKPNLKNLQKEEVLPTEPPKKRVALDDKVFQRGLEVALALSVKELPTLTNQVKKSKEKSTDKQGKEKTENTGKPPRVSNCSVASDDVEDLDKITEEGDASSVEGERKSPSQAKAPRRRAPSEGSDGSSANDTESESATGEGSESDPDFDESKESDEDFGVRRSKESKKKTVQKKPAGEKKERKSKPKCEASVTSVDPAPAAIKSGSPSLPQAVGLPSEATRKPAIMCSPSAESKRPKWVPPAASGSRNSSSNALAGTPAKAPSQSLRLGLSRLAPVKRLHPSATSSQVR [chain 1 S309A] was tested, and the ratio to parent was 0.71.

Variants of: B1
Assay: co-immunoprecipitation (IP GFP-RAD51, blot RAD51AP1), band quantification
Conditions: asynchronous 293FT cells, transient co-expression, lane 16, parent: 1, read off a plot
Work on chain 1 MVRPTRNRKPINYSQFEDSGNDSDDDFISSSTPVNKSKTVPKVLKQDKPKPNLKNLQKEEVLPTEPPKKRVALDDKVFQRGLEVALALSVKELPTLTNQVKKSKEKSTDKQGKEKTENTGKPPRVSNCSVASDDVEDLDKITEEGDASSVEGERKSPSQAKAPRRRAPSEGSDGSSANDTESESATGEGSESDPDFDESKESDEDFGVRRSKESKKKTVQKKPAGEKKERKSKPKCEASVTSVDPAPAAIKSGSPSLPQAVGLPSEATRKPAIMCSPSAESKRPKWVPPAASGSRNSSSNALAGTPAKAPSQSLRLGLSRLAPVKRLHPSATSSQVR [chain 1 S309A] yielded a ratio to parent of 0.53.
